Columns and labels:
[1] = molecular target: hepcidin-imprinted silk fibroin (SilMA) nanoparticles, bioMIPs (Bombyx mori); experiment: ITC; hepcidin 28 μM (syringe, 50 μL) titrated into bioMIP or control SF-NPs 2.5 μM (220 μL) in 50 mM PBS pH 7.4, 25 °C, 16 injections of 3 μL; independent site model; triplicate
[2] = molecular target: hepcidin-imprinted silk fibroin (SilMA) nanoparticles, bioMIPs (Bombyx mori); experiment: competitive fluorescence assay; 30 μg/well of bioMIPs with hepcidin-depleted pooled serum (10 μL in 150 μL PBS 10 mM pH 7.4, 0.08% Tween-20), hepfitc 500 or 250 pmol, hepcidin competitor 0.11, 0.34, 0.68, 2.70 μM; displacement from ≥ 120 min of incubation; Hill fit
[3] = molecular target: hepcidin-imprinted silk fibroin (SilMA) nanoparticles, bioMIPs (Bombyx mori); experiment: other fluorescence titration; 37.5 μg of bioMIPs or non-imprinted SF-NPs per well incubated with hepfitc 3 nM–2.5 μM in PBS 10 mM pH 7.4 with 0.08% Tween-20, read at 30 min; Langmuir fit; apparent
[4] = molecular target: hepcidin-imprinted silk fibroin (SilMA) nanoparticles, bioMIPs (Bombyx mori); experiment: competitive fluorescence assay; bioMIPs incubated with hepfitc (500 pmol) alone or with one competitor (hepcidin; angiotensin, cytochrome c or human serum albumin 6 nmol); bound hepfitc at 30 min; triplicate

Substance	Kd [1] [µM]	dH [1] [kcal/mol]	stoichiometry N [1]	Ka [2] [M⁻¹]	Kd [2] [µM]	Kd [3] [µM]	imprinting factor (hepfitc bound to the bioMIP with respect to that bound to the NIP) [3]	hepfitc bound at 30 min [4] [pmol]
Hepcidin-25 (from UniProt P81172 60-84) (peptide)	0.36	-14	2.1	2.41e+06	0.41	–	–	–
fluorescent hepcidin (hepfitc) (peptide)	–	–	–	–	–	1.67	2	125

— paper PMC8782820
